Measured values reported in patent publication US20090169538A1, “Methods of Treating or Preventing Tissue Damage Caused by Increased Blood Flow” (REGENERX BIOPHARMACEUTICALS, INC., priority 2006, published 2009).

Legend:
embryonic heart explants = assay type: cell-based
Excerpt: To test the effects of secreted thymosin β4 on cardiac cell migration, an embryonic heart explant system designed to assay cell migration and transformation events on a three-dimensional collagen gel was utilized. In this assay, explants of adjacent embryonic myocardium and endocardium from valve-forming regions were placed on a collagen gel with the endocardium adjacent to the collagen.
Outflow tract was dissected from E11.5 wild type mouse embryos and placed on collagen matrices as previously described. After 10 hours of attachment explants were incubated in 30 ng/300 μl thymosin β4 in PBS, PBS alone or thymosin β4 and 100 nM wortmanin. Cultures were carried out for 3-9 days at 37° C. 5% CO2 and fixed in 4% paraformaldehyde in PBS for 10 min at RT. Cells were counted for quantification of migration and distance using at least three separate explants under each condition for endothelial migration and eight separate explants for myocardial migration.
Paraformaldehyde-fixed explants were permeabilized for 10 min at RT with Permeabilize solution (10 mM PIPES pH6.8; 50 mMNaCl; 0.5% Triton X-100; 300 mM Sucrose; 3 mM MgCl2) and rinsed with PBS 2×5 min at RT. After a series of blocking and rinsing steps, detection antibodies were used and explants rinsed and incubated with Equilibration buffer (Anti-Fade kit) 10 min at room temperature. Explants were scooped to a glass microscope slide, covered, and examined by fluorescein microscopy. TUNEL assay was performed using ApopTag Plus Fluorescein In Situ Apoptosis detection kit (Intergen Company # S7111) as recommended.

[1] = target: T1, integrin linked kinase (ILK) (Homo sapiens, UniProt Q13418); assay: coimmunoprecipitation with ILK; assay type: binding
T1 construct: expressed in transfected cells; host or cells: Cos and 10T1/2 cells
T1 sequence (Q13418 1-452): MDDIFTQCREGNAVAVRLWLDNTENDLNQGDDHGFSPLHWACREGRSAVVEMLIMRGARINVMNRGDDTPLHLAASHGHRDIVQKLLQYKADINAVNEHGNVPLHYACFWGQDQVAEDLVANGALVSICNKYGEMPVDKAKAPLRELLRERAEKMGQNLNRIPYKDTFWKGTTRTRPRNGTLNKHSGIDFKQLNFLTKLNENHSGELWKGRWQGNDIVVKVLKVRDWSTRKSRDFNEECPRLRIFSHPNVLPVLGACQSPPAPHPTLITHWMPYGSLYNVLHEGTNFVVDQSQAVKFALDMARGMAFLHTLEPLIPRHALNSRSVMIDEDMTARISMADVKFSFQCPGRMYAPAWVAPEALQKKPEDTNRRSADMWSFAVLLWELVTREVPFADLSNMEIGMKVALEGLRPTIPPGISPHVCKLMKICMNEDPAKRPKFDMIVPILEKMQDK
Excerpt: To investigate the potential mechanisms through which thymosin β4 might be influencing cell migration and survival events, thymosin β4 interacting proteins were searched. The amino-terminus of […] was fused with affi-gel beads resulting in exposure of the carboxy-terminus that allowed identification of previously unknown interacting proteins but prohibited association with actin. An E9.5-12.5 mouse heart T7 phage cDNA library was synthesized and screened by phage display and thymosin β4-interacting clones were enriched and confirmed by ELISA. PINCH, a LIM domain protein, was most consistently isolated in this screen and interacted with thymosin β4 in the absence of actin (ELISA). PINCH and integrin linked kinase (ILK) interact directly with one another and indirectly with the actin cytoskeleton as part of a larger complex involved in cell-extracellular matrix interactions known as the focal adhesion complex. PINCH and ILK are required for cell motility and for cell survival, in part by promoting phosphorylation of the serine-threonine kinase Akt/protein kinase B, a central kinase in survival and growth signaling pathways. […] The PINCH interaction with thymosin β4 mapped to the fourth and fifth LIM domains of PINCH while the amino terminal ankryin domain of ILK was sufficient for thymosin β4 interaction. […]

For thymosin β4, the “cell death based on TUNEL assay compared to control cells” value (embryonic heart explants) was “No significant difference”, the “number of migrating endothelial cells” value (embryonic heart explants; E11.5 explants, compared to PBS, p<0.01) was “increased number of migrating endothelial cells” and the “proliferative rate based on phosho-histone H3 immunostaining compared to control cells” value (embryonic heart explants; migrated cells of explants) was “No significant difference”. The “migration of myocardial cells away from the explant” value (embryonic heart explants; thymosin β4 added to primary explants on collagen gel) was “a large number of spontaneously beating, cardiac muscle actin-positive cells had migrated away from the explant”, the “strength of interaction of ILK with thymosin β4” value ([1]; common complex immunoprecipitation) was “weaker than with PINCH” and the “co-precipitation with ILK” value ([1]; plasmids transfected in cultured cells) was “co-precipitated”.
